Source: IntAct's records for PubMed 25910212

B1: DNA excision repair protein ERCC-1 (Homo sapiens), P07992-3 (parent)
chain: MDPGKDKEGVPQPSGPPARKKFVIPLDEDEVPPGVAKPLFRSTQSLPTVDTSAQAAPQTYAEYAISQPLEGAGATCPTGSEPLAGETPNQALKPGAKSNSIIVSPRQRGNPVLKFVRNVPWEFGDVIPDYVLGQSTCALFLSLRYHNLHPDYIHGRLQSLGKNFALRVLLVQVDVKDPQQALKELAKMCILADCTLILAWSPEEAGRYLETYKAYEQKPADLLMEKLEQDFVSRVTECLTTVKSVNKTDSQTLLTTFGSLEQLIAASREDLALCPGLGPQKVRALGKNPRSWGKERAPNKHNLRPQSFKVKKEPKTRHSGFRL
partner: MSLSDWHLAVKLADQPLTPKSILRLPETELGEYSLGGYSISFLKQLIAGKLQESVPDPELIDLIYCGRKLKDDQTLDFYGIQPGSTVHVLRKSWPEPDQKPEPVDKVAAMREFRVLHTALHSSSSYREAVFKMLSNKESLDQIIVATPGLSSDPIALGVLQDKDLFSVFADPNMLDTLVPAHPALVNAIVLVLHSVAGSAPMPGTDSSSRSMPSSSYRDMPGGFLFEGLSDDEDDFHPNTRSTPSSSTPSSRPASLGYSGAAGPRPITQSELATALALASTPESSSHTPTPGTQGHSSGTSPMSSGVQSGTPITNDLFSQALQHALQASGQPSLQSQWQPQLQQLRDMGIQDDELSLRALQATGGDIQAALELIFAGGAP
B2: ATP synthase mitochondrial F1 complex assembly factor 2 (Homo sapiens), Q8N5M1 (parent)
chain: MWRSCLRLRDGGRRLLNRPAGGPSASMSPGPTIPSPARAYAPPTERKRFYQNVSITQGEGGFEINLDHRKLKTPQAKLFTVPSEALAIAVATEWDSQQDTIKYYTMHLTTLCNTSLDNPTQRNKDQLIRAAVKFLDTDTICYRVEEPETLVELQRNEWDPIIEWAEKRYGVEISSSTSIMGPSIPAKTREVLVSHLASYNTWALQGIEFVAAQLKSMVLTLGLIDLRLTVEQAVLLSRLEEEYQIQKWGNIEWAHDYELQELRARTAAGTLFIHLCSESTTVKHKLLKE
partner: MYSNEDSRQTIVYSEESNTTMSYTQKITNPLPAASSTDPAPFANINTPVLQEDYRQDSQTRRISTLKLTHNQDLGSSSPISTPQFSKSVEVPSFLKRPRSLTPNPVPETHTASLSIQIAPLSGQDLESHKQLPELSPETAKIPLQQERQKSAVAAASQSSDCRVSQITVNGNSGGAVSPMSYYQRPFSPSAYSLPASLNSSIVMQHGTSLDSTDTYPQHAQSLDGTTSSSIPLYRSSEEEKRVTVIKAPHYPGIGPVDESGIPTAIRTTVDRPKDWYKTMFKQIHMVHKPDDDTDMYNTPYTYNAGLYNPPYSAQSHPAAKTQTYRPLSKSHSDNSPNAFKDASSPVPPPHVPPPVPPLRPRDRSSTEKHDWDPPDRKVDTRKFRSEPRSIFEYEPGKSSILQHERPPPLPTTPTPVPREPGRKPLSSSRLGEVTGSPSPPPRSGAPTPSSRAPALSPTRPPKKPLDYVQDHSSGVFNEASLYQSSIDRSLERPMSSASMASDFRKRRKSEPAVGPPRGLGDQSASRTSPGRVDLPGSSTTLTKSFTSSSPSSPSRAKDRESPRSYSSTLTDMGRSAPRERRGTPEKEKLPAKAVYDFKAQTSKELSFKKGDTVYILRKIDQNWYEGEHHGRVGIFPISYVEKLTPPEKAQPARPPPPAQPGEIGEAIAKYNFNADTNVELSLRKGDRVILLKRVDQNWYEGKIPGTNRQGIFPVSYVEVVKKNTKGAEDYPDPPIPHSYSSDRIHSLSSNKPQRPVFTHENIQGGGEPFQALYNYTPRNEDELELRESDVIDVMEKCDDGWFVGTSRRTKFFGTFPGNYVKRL
B3: Keratin, type II cytoskeletal 6A (Homo sapiens), P02538 (parent)
chain: MASTSTTIRSHSSSRRGFSANSARLPGVSRSGFSSVSVSRSRGSGGLGGACGGAGFGSRSLYGLGGSKRISIGGGSCAISGGYGSRAGGSYGFGGAGSGFGFGGGAGIGFGLGGGAGLAGGFGGPGFPVCPPGGIQEVTVNQSLLTPLNLQIDPTIQRVRAEEREQIKTLNNKFASFIDKVRFLEQQNKVLETKWTLLQEQGTKTVRQNLEPLFEQYINNLRRQLDSIVGERGRLDSELRGMQDLVEDFKNKYEDEINKRTAAENEFVTLKKDVDAAYMNKVELQAKADTLTDEINFLRALYDAELSQMQTHISDTSVVLSMDNNRNLDLDSIIAEVKAQYEEIAQRSRAEAESWYQTKYEELQVTAGRHGDDLRNTKQEIAEINRMIQRLRSEIDHVKKQCANLQAAIADAEQRGEMALKDAKNKLEGLEDALQKAKQDLARLLKEYQELMNVKLALDVEIATYRKLLEGEECRLNGEGVGQVNISVVQSTVSSGYGGASGVGSGLGLGGGSSYSYGSGLGVGGGFSSSSGRAIGGGLSSVGGGSSTIKYTTTSSSSRKSYKH
partner: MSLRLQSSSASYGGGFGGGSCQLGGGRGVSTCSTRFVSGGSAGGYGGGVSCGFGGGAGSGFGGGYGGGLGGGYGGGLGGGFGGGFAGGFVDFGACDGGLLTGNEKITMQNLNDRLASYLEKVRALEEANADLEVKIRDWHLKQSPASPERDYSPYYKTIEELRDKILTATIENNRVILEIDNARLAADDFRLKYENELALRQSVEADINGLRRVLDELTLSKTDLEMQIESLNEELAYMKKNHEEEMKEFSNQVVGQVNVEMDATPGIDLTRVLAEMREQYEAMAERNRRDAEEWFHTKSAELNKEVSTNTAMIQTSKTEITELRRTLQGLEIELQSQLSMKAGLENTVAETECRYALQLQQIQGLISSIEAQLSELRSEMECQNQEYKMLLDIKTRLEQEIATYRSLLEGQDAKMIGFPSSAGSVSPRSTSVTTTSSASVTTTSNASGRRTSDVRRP

Variants of: B1
Details: with ubl7_human UBL7, Q96S82

Variant | effect of a mutation on the interaction
F231L | with no effect

Variants of: B2
Details: with SORBS2, O94875-10

Variant | effect of a mutation on the interaction
W94R | disrupting interaction strength

Variants of: B3
Details: with KRT13, P13646

Variant | effect of a mutation on the interaction
I462S | with no effect
V523F | with no effect
N171K | with no effect
F174V | with no effect
N21S | with no effect
F249L | with no effect
A463P | with no effect
T552S | with no effect
